Test results published in PMC2151178.

Biological target: DdUnc104 (Dictyostelium Unc104), 245-kD kinesin (Dictyostelium discoideum (endogenous in wild-type cells)) (UniProt Q9NGQ2)
Experiment: SEC + other: sucrose density gradient velocity sedimentation

stoichiometry N: 2
Substance: DdUnc104 (Dictyostelium Unc104), 245-kD kinesin, Q9NGQ2 1-2205
